The values that follow come from US20070178531A1 (BIOCHECK, published 2007).

Assay [1] concerns the target T1, Human Id2: Histidine (human, UniProt Q02363 1-134, limits assumed).
T1 construct: Fusion protein made in E. coli from vector pGW07; also called h-Id2: His; not shown: His tag
T1 sequence (looked up): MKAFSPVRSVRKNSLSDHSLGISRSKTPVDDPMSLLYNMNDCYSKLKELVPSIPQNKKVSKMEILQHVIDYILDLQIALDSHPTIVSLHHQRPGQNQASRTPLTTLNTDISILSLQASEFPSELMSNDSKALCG
The assay can be described thus: ELISA, Ab 0.100 µg/ml. Here is the method: (§1) The rabbit monoclonal anti-human Id3 (clone #3-3) and the rabbit monoclonal anti-mouse/human Id3 (clones #6-1, 16-1, 17-3, and 42-1) produced in Example 6 were tested reactivity against the following antigens: mouse Id1:His, human Id1:His, mouse Id2:His, human Id2:His, mouse Id3:His, human Id3:His, mouse Id4:His, human Id4:His and GST.
(§2) 1. Microtiter wells (prepared in accordance with Example 6) were coated (0.1 μg/well) with mouse Id1:His, human Id1:His, human Id2:His, human Id3:His, and 1.0 μg/well with GST. [0155] 2. Antibody Diluent: 0.25% (w/v) BSA in 0.015M KPO₄ Buffer, 0.85% (w/v) NaCl, 0.1% (w/v) NaN₃, pH=7.40 [0156] 3. Rabbit monoclonal anti-human Id3 (clone #3-3) prepared in Example 7 was diluted to […] with the antibody diluent. […] 4. Rabbit monoclonal anti-mouse/human Id3 (clones #6-1, 16-1, 17-3, 42-1) prepared in Example 7 was diluted to 0.005, 0.010, 0.025, 0.05, 0.10, 0.25, and 0.50 μg/ml with the antibody diluent. […] 5. Conjugate Diluent: 50% (v/v) which consists of an aqueous solution containing Fetal Bovine Serum in 0.05 M Tris, 1% (v/v) Proclin-300, pH 7.6. [0159] 6. Conjugate: Goat anti-rabbit IgG (H+L)-HRP conjugate. [0160] 7. TMB reagent. […] 8. Stop solution (1 N HCI). Method
(§3) 1. Dispense 100 μL of antibody diluent, diluted rabbit monoclonal human Id3, and mouse/human Id3 hybridoma supernatants into appropriate wells. […] 2. Incubate at room temperature with mechanical shaking at 750 rpm for 90 minutes. [0165] 3. Remove the incubation mixture by flicking plate content into an appropriate waste container followed by rinsing the wells 5 times with distilled water. [0166] 4. Strike the wells sharply onto absorbent paper or paper towels to remove all residual water droplets. [0167] 5. Dispense 100 μL of 1:50,000 Goat Anti-Rabbit IgG-HRP Conjugate Reagent into each well. Gently mix for 5 seconds. [0168] 6. Incubate at room temperature with mechanical shaking at 750 rpm for 90 minutes. [0169] 7. Repeat procedures 3 and 4. [0170] 8. Dispense 100 μL of TMB Reagent into each well. Gently mix for 5 seconds. [0171] 9. Incubate at room temperature with mechanical shaking at 750 rpm for 20 minutes. […] 10.
(ELISA stands for enzyme-linked immunosorbent assay.)

Assay [2] addresses T2, glutathione S-transferase (GST) (UniProt P08515 1-218 = GST).
T2 construct: also called carrier protein GST
As to the kind of experiment: ELISA, Ab 0.100 µg/ml. On the procedure:
as §1, §2, §3

For assay [3], the target named is T2, glutathione S-transferase (GST). As to the kind of experiment: ELISA, Ab 0.005 µg/ml.
Assay [4] has the same target. As to the kind of experiment: ELISA, Ab 0.010 µg/ml.
Assay [5] has the same target. As to the kind of experiment: ELISA, Ab 0.025 µg/ml.
Assay [6] addresses T3, Mouse Id3: Histidine (mouse, UniProt P41133 1-119).
T3 construct: Fusion protein made in E. coli from vector pGW07; also called m-Id3: His; Mouse Id3 (coated wells); not shown: His tag
T3 sequence: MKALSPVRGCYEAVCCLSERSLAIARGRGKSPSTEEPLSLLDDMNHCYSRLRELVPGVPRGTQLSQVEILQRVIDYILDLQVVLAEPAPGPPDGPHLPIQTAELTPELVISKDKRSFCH
As to the kind of experiment: ELISA, Ab 0.100 µg/ml. On the procedure: as §1, §2, §3

In assay [7] the target is T4, Human Id3: Histidine (human, UniProt Q02535 1-119 at identity 1.00)).
T4 construct: Fusion protein made in E. coli from vector pGW07; also called h-Id3: His; Human Id3 (coated wells); not shown: His tag
T4 chain: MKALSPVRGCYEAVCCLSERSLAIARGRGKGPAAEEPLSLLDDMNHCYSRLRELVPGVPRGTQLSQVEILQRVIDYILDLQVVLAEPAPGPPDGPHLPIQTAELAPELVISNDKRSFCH
The assay can be described thus: ELISA, Ab 0.100 µg/ml. On the procedure:
as §1, §2, §3

Assay [8] concerns the target T5, Mouse Id2: Histidine (mouse, UniProt P41136 1-134, limits assumed).
T5 construct: Fusion protein made in E. coli from vector pGW07; also called m-Id2: His; not shown: His tag
T5 sequence (looked up): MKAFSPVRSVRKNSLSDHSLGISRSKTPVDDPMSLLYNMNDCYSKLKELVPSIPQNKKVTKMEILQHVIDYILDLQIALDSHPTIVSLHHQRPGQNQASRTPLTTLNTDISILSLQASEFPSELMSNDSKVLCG
The assay can be described thus: ELISA on coated wells, summary.

For assay [9], the target named is T3, Mouse Id3: Histidine. The assay can be described thus: ELISA on coated wells, summary.
Assay [10] addresses T4, Human Id3: Histidine. As to the kind of experiment: ELISA on coated wells, summary.
Assay [11] concerns the target T6, Mouse Id1: Histidine (mouse, UniProt P20067-2 1-148, limits assumed).
T6 construct: Fusion protein made in E. coli from vector pGW07; also called m-Id1-His; not shown: His tag
T6 sequence (looked up): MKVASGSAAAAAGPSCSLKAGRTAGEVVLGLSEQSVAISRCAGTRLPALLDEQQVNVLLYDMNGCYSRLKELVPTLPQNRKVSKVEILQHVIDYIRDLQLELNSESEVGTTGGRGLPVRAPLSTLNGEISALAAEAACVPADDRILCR
As to the kind of experiment: ELISA on coated wells, summary.

T2 sequence (P08515 whole entry): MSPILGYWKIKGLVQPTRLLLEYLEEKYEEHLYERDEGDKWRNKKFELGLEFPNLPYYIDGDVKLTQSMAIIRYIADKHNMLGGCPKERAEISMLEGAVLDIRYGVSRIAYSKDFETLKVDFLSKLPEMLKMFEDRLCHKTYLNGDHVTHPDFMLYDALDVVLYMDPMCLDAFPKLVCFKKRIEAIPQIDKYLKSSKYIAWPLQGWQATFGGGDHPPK

B1: rabbit monoclonal anti-human Id3, clone #BCH-4/#3-3 (antibody, V domains shown)
VH: QSVEESGGRLVTPGTPLTLTCTVSGIDLSSYAMSWVRQAPGKGLEWIGVIFPSNNVYYASWAKGRFTISKTSTTVDLKITSPTTEDTATYFCASMGAFDSWGPGTLVTVSS
VL: QVLTQTPSPVSAAVGGTVTINCQASQSIYNDNDLAWFQQKPGQPPKLLIYDASTLTSGVPSRFKGSGSGTQFTLTISDLDCDDAATYYCAARYSGNIYGFGGGTEVVVK
notes: Rabbit IgG from a rabbit hybridoma; also called h Id3 MoAb 3-3
B1: the A450 in [1] came out at 0.048 A450; in assay [2], 0.048 A450; in assay [3], 0.045 A450; in [4] it was 0.045 A450; in assay [5] it was 0.048 A450.

B2: rabbit monoclonal anti-mouse/human Id3, clone #BCH-4/#16-1 (antibody, V domains shown)
VH: QSVEESGGRLVTPGTPLTLTCTASGFSLSSYYIHWVRQAPGKALEWIGYISDGGTTYYASWAKGRFTISKTSSTTVDLKMTSLTTEDTATYFCARQGFNIWGPGTLVTVSL
VL: AVLTQTPSPVSAAVGGTVTISCQSSQSVYNNNWLSWFQQKSGQPPKLLIYETSKLESGVPSRFKGSGSGTQFTLTIIDVQCDDAATYYCLGGYWTTSDNNIFGGGTEVVVK
notes: Rabbit IgG from a rabbit hybridoma; also called m/h Id3 MoAb 16-1
On to B2, for which the A450 in assay [1] was 0.048 A450; in [6], 2.28 A450; in assay [7] it was 1.99 A450; in assay [2], 0.049 A450; in assay [3], 0.048 A450; in assay [4], 0.046 A450. Further, the A450 in assay [5] is 0.048 A450. For the same molecule, the “Cross-reactivity (%)” value was less than 1% in assay [8], 100% in assay [9], 100% in [10] and less than 1% in [11].

B3: rabbit monoclonal anti-mouse/human Id3, clone #BCH-4/#6-1 (antibody, V domains shown)
VH: QSVEESGGRLVTPGTPLTLTCTASGFSLSNVYIHWVRQAPGKGLEWIGYISDGDTARYATWAKGRFTISKTSSTTVNLKMTSLTTEDTATYFCARQGFNIWGPGTLVTVSL
VL: AVLTQTPSPVSAAVGGTVSISCQSSQSVWNNNWLSWFQQKPGQPPKLLIYETSKLESGVPSRFKGSGSGTQFTLTISDVQCDDAATYYCLGGYWTTSDNNVFGGGTEVVVK
notes: Rabbit IgG from a rabbit hybridoma; also called m/h Id3 MoAb 6-1
Take B3: the A450 in [1] is 0.049 A450; in [6] it was 2.56 A450; in assay [7], 2.36 A450; in [2], 0.047 A450; in [3], 0.046 A450; in assay [4], 0.046 A450. The same molecule yielded an A450 in assay [5] of 0.049 A450. Moreover, the “Cross-reactivity (%)” value is less than 1% in assay [8], 100% in assay [9], 100% in assay [10] and less than 1% in [11].

B4: rabbit monoclonal anti-mouse/human Id3, clone #BCH-4/#17-3 (antibody, V domains shown)
VH: QSVEESGGRLVTPGTPLTLTCTASGFSLSNVYIHWVRQAPGKGLEWIGYISDGDTARYATWAKGRFTISKTSSTTVNLKMTSLTTEDTATYFCARQGFNIWGPGTLVTVSL
VL: AVLTQTPSPVSAAVGGTVSISCQSSQSVWNNNWLSWFQQKPGQPPKLLIYETSKLESGVPSRFKGSGSGTQFTLTISDVQCDDAATYYCLGGYWTTSDNNVFGGGTEVVVK
notes: Rabbit IgG from a rabbit hybridoma; also called m/h Id3 MoAb 17-3; BCH-3/#17-3
Regarding B4, the A450 in assay [1] was found to be 0.048 A450; in assay [6], 2.91 A450; in assay [7], 2.6 A450; in assay [2], 0.052 A450; in assay [3] it was 0.048 A450; in [4], 0.046 A450. Further, the A450 in assay [5] is 0.045 A450. Moreover, the “Cross-reactivity (%)” value in assay [8] was less than 1%; in [9], 100%; in assay [10], 100%; in assay [11] it was less than 1%.

B5: rabbit monoclonal anti-mouse/human Id3, clone #BCH-4/#42-1 (antibody, V domains shown)
VH: QSVEESGGRLVTPGTPLTLTCTASGFSLSSYYIHWVRQAPGKALEWIGYISDGGTTYYASWAKGRFTISKTSSTTVDLKMTSLTTEDTATYFCARQGFNIWGPGTLVTVSL
VL: AVLTQTPSPVSAAVGGTVTISCQSSQSVYNNNWLSWFQQKSGQPPKLLIYETSKLESGVPSRFKGSGSGTQFTLTIIDVQCDDAATYYCLGGYWSTSDNNIFGGGTEVVVK
notes: Rabbit IgG from a rabbit hybridoma; also called m/h Id3 MoAb 42-1
With B5, the A450 in assay [1] worked out at 0.046 A450; in assay [6], 2.87 A450; in assay [7] it was 2.6 A450; in assay [2], 0.049 A450; in assay [3] it was 0.048 A450; in assay [4] it was 0.045 A450. Further, the A450 in assay [5] was 0.045 A450. Besides, the “Cross-reactivity (%)” value in assay [8] was less than 1%; in assay [9], 100%; in [10] it was 100%; in [11], less than 1%.
